Among the data in article doi:10.1101/2020.01.09.899237 are total crosslinks between the JD and HspA1A across three XL-MS experiments values, retold here.

The test has as its target DnaJB8ΔCTD (human). Kind of test: cross-linking.

Chain of HspA1A (human Hsp70) (P0DMV8 whole entry): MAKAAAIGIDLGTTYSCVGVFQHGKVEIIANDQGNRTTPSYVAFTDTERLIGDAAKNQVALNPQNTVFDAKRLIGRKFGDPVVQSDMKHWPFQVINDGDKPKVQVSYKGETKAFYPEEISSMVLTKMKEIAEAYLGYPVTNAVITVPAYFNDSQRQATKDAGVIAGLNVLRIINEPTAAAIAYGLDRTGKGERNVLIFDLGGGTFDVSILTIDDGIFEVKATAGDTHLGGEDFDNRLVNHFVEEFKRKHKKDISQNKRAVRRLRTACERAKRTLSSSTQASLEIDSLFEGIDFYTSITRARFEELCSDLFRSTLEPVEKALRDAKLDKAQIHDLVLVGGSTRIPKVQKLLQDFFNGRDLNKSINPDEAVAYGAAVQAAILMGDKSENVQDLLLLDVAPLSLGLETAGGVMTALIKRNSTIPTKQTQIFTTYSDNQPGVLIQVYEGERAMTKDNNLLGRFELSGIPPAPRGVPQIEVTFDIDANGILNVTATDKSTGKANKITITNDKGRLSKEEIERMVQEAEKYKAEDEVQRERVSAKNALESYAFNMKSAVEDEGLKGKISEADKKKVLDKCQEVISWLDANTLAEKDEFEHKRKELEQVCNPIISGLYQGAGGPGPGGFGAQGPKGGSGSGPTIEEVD

Consider “HspA1A (human Hsp70) (from UniProt P0DMV8 1-641) (natural protein)”, for which the total crosslinks between the JD and HspA1A across three XL-MS experiments was found to be 14 crosslinks.
